From the nanobody polyreactivity screen of Harvey et al. (2022)

Test: yeast display, Sf9 membrane polyspecificity reagent, FACS + sequencing; frameworks hold sequencing errors
Summary of the method: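 A synthetic nanobody library was expressed on Saccharomyces cerevisiae BJ5465 by galactose induction for 36–48 hours. The library was stained for 1 hour at 4 °C with 10% biotinylated, detergent-solubilized Sf9 membrane reagent and enriched with streptavidin microbeads before FACS. Low and high (top ~1%) gates were set on anti-HA fluorescence for expression and streptavidin fluorescence for reagent binding, and each polyreactivity label reflects the gate of origin.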

Row | Sequence | polyreactivity (PSR sort gate)
1 | QVQLVESGGGLVQAGGSLRLSCAASGLTVGGNVMGWYRQAPGKERELVAAISRSGDRTYYADSVKGRFTISRDNAKNTVYLQMNSLKPEDTAVYYCAVRVLYRQVFRYDYWGQGTQVTVSS | high polyreactivity
2 | QVQLVESGGGLVQAGGSLRLSCAASGSIFGSYARGRYRQAPVKERELVAGITYRGSSTYYADSVKGRFTISRDKAKNTVYLQMNSLKPEDTAVYYCAADPVFDEYDYWGQGTQVTVSS | low polyreactivity
3 | QVKLVESGGGLVQAGGSLRLSFDASGSTFYFYAMGLYRQDPGKETEFFAAITQSGGSTNYADSVKGRFTISRDKAKNTVYLQMNSLKPEDTAVYYCSAREWRSFDYWGQGTQVTVSS | low polyreactivity
4 | QVQLVESGGGLVQAGGSLRLSCAASGFIFPRYVMGWSRQAPGKERELVAAINSDISTNYADSVKGRFTISRDNAKNTVYLQMNSLKPEDTAVYDCAAERWDDRWEFDYWGQGTQVTVSS | low polyreactivity
5 | QVQLVESGGGLVQAGGSLRLSCAASGFIFGLYDMGWYRQAPGKERELVARISWGGGTYYADSVKGRFTISRDNAKNTVYLQMNSLKPEDTAVYYCNTRTRGYYYNSYYWTKYGYWGQGTQVTVSS | high polyreactivity
6 | QVQLVESGGGLVQAGGSLRLSCAASGRIFRINAMGWYRPAPGKERELVAAITRGGSTNYADSVKGRFTISRDNAKNTVYLQMNSLKPEDTAVYYCAADVSTYYYPGWFKLYLFDYWGQGTQVTVSS | high polyreactivity
7 | QVQLVESGGGLVQAGGSLRLSCAASGFTFVQYAMGWYRPAPGKERELVATITNGGGSTYYADSVKGRFTISRDNAKNTVYLQMNSLKPEDPAVYYCNADSGGRGAPTSTYDYWGQGTQVTLSS | low polyreactivity
8 | QVQLVESGGGLVQAGGSLRLSCAASGFTFCKYTMGWYRQAPGKERELVAAITNSGTSTYYADSVKGRFTISRDNAKNTVYLQMNSLKPEDTAVYYCARDNEPDYYSYPYDYWGQGTQVTVSS | low polyreactivity
9 | QVQLVESGGGLVQAGGSLRISCAASGFIFYSYPMGWYRQAPGKERELVAAISTSGGSTYYADSVKGRFTISRDNAKNTVYLQMNSLKPEDTAVYYCAVGRKFGRYRVPFVVPYEYWGHGTQVTVSS | high polyreactivity
10 | QVQLVESGGGLVQAGGSLRLSCAASGRTLWGNAMGWYRQAPGKERELVAAISRSGYTNYADSVKGRFTISRDNAKNTVYLLMNRLKPEDTAVYYCNARSTRSRTYQSYDYWGQGTQVTVSS | high polyreactivity
11 | QVQLVETAGGLVQAGGSLRLSSAASRSTFGPYAMGWYSQSPGKERELVAAISRRGTSTYYADSVKGRFTISRDNAKHTVYLQMNSLKPDDTAVYYCNAVTSSFYIRDSDYWGQGNQVTVSS | high polyreactivity
12 | QVQLVESGGGLVQAGGSLRLSCAASGLNFIRYAMGWYRPAPGKERELVAAISWPGGNTYYADSVKGRFTISRDNAKNTVYLQMISQKPEDTAVYYCAAVGTWQHRSYGYWGQGTQVTVSS | high polyreactivity
13 | QVQLVESGGGLVQAGGSLRLSCAASGSTFGVNAMGWYRQAPGKERELVASISSGGGTYYADSVKGRFTISRDNAKNTVYLQMNSLKPEDTAVYYCAAVYYWYDSYAGYDYWGQGTQVTVSS | low polyreactivity
14 | QVQLVESGGGLVQAGGSLRLSCAASGFTFYIYAMGWYRQAPGKERELVAAITTSGDSTYYADSVKGRFTISRDNAKNTVYLQMNSLKPEDTAVYYCAAEYWYTYSWGQGTQVTVLS | low polyreactivity
15 | QVQLVESGGGLVQAGGSLRLSCADSGSIFDFNTMGWYRQAPGKERELVAAISQRTGRTYYADSVKGRFTISRDNANNTVYLQMNSLKPEDTADYYCAVVWYDKGRQTRYNSWGQGTQVTVSS | high polyreactivity
16 | QVQLVESGGGLVQAGGSLRLSCAASGSTSRQYAMGWYRQAPGKERELVAAITWSGASTNYADSVKGRFTISRDNAKNTVYLQMNSLKREDTAVYYCAAYRWVYPDVIYDYWGQGTQVTVSS | high polyreactivity

Row | Sequence | polyreactivity (PSR sort gate)
17 | QVQLVESGGGLVQAGGSLRLSCAASGSTFAKYVMGWYRQAHGKERELVAAISRRGSSTYYADSVKGRFTISRDNAKNTVYLQMNSLKPEDTAVYYCAARFRYSGFEGMDYWGQGTQVTVSS | high polyreactivity
18 | QVQLVESGGRLVQAGGSLRLSCAASGRTFYIYAMGWYRQAPGKERELVADISWSGGSTYYADSVKGRFTISRDNAKNTVYLQMNSLKPEDTAVYYCAADLYVYPNWYLYYYWGQGTQVTVSS | high polyreactivity
19 | QVQLVESGGGLVQAGGSLRLSCAASGSIFDDYTMVWYRQAPGKEREFVATITSSGSTYYADSVKGRFTISRDNAKNTVYLQMNSLKPEDTAVYYCNADDTYYPLGGITGYDYWGQGTQVTVSS | low polyreactivity
20 | QVQLVEYVGGLVQAGGSLRLSCAASGRIFQYYARGWYRQAPGKERELVAAINSSGGRTYYADSVKGRFTISRDNAKNTVYLQMNSLKPEDTAVYDCNAVLSTRGMDYWGQGTQVTVSS | high polyreactivity
21 | QVQLVESGGGLVQAGGSLRLSCAASGSTFLGNAMGWYRQAPGKEREFVAAITVSGGSTYYADSVKGRFTISRDNAKNTVYLQMNSLKPEDTAVYYCAARYLRYSSKTIQNEDYWGQVTQVTVSS | high polyreactivity
22 | QVQLVESGGGLVQAGGSLRLSCAASGITFQPYAMGWYRQAPGKEREFVAVISFRGGSTYYADSVKGRFTISRDNAKNTVYLQMNSLKPEDTAVYYCAALEYHGHTGGRVYYWVQGTQVTVSS | high polyreactivity
23 | QVQLVESGGGLVQAGGSLRLSCAASGFTFYGYAMGWYRQAPGKERELVAAINSAGRTYYADSVKGRFTISRDNAKNTVYLQMNSLKPEDTAVYYCASKYVRGHGYWGQGTQVTVSS | high polyreactivity
24 | QVQLVESGGGLVQAGGSLRLSCAASGFILGTNAMGWYRQAPGKERELVAAISSGGGSTYYADSVMGRFTISRDNAKNTVYLQMNSQKPEDTAVYYCAADNVWGYPEDDYWGQGTQVTVSS | low polyreactivity
25 | QVQLVESGGGLVQAGGSLRLSCAASGSTFKRYAMGWYRQAPGKDRELVAAIRRGGITNYADSVKGRFTISRDNAKNTVYLQMNSLKPEDTAVYYCAKDGVTYPYSYEYDYWGQGTQVTVSS | low polyreactivity
26 | QVQLVESGGGLVQAGGSLRLSCAASGSTLPNNAMGWYRQAPGKERELVAAISWRGTRTYYADSVKGRFTISRDNAKNTVYLQMNSLKPEDTAVYYCAAGGVGAYDYWGQGTEVTVSS | high polyreactivity
27 | QVQHVESGGGLVQAGGSLRLSCAASGSIFYIYAMGWYRQAPGKERELVASISRSGGSTYYADSVKGRFTISRDNAKNTVYLQMNSLKPEDTAVYYCAAVITFYRYPPGETYYYWGQGTQVTVSS | high polyreactivity
28 | QVQLVESCGLLVQAGGSLRLSCAASGSIIVYNTMRCYRQAPGKERELVAAIYSSGGSTYYADSVKGRFTISRDNAKNTVYLQMNILKPEDTAVYYCAAVNGYQYPPYYYNGYDYWGQGTHVTVSS | low polyreactivity
29 | QVQLVESGGGLVQPGGSLRLSCAASGFTFYLYALGWYRQAPVKERELVASISSGGRTYYADSVKGRFTISRDNAKNTVYVQMNRLKPADTAVYYCAARRPAWYWSAYRYYSEMDYWGQGTQVTVSS | high polyreactivity
30 | QVQLVESGGGLVQAGGSLRLSCAASGRTFSQYAMGWYRQAPRKERELVAAISWGGRTYYADSVKGRFTISRDNAKNTVYLQMNSLKPEDTAVYYCAASSKLTYYEENHWGQGTQVTVSS | high polyreactivity
31 | QVQLVESGGGLVQAGGSLRLSCAASGITFQRYAMGWYRQAPGKERELVAAISTNGGTTYYADSVKGRFTISRDNAKNTVYLQMNSLKPEDTAVYYCNAESGYVYYIRYNYWGQGTQVTVSS | high polyreactivity
